Measured values as given in the supplement of paper PMC9112550, “Optimization of the antimicrobial peptide Bac7 by deep mutational scanning” (BMC Biology, 2022).

Test system: Escherichia coli TOP10
Experiment: shrunken log2 fold change of peptide-encoding DNA abundance (4.5 h post-induction vs induction); higher = less antimicrobial activity (less host growth inhibition)
Conditions: time post-induction: 4.5 h; library: site-saturation at positions 5, 18, 19, 20
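Also: peptides expressed intracellularly from a pBAD plasmid library in pooled LB shake-flask culture, induced with 0.3% L-arabinose, DNA abundance read by NGS, three biological replicates, DESeq2 with apeglm shrinkage.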

Sequence | shrunken log2 fold change
RRIRNRPPRLPRPRPRPYWWPRP | 0.0224
RRIRIRPPRLPRPRPRPCCNPRP | -0.0118
RRIRIRPPRLPRPRPRPHTFPRP | -1.53
RRIRDRPPRLPRPRPRPNMPPRP | -0.497
RRIRQRPPRLPRPRPRPTERPRP | 0.313
RRIRRRPPRLPRPRPRPSTQPRP | -0.245
RRIRTRPPRLPRPRPRPPTIPRP | -0.248
RRIRWRPPRLPRPRPRPADRPRP | 0.0754
RRIRGRPPRLPRPRPRPRNNPRP | 0.346
RRIRGRPPRLPRPRPRPEEWPRP | 1.7
RRIRDRPPRLPRPRPRPCQPPRP | -0.144
RRIRPRPPRLPRPRPRPQGNPRP | -0.146
RRIRIRPPRLPRPRPRPSFNPRP | -0.838
RRIRCRPPRLPRPRPRPRNNPRP | -0.282
RRIRPRPPRLPRPRPRPEKGPRP | 0.321
RRIRWRPPRLPRPRPRPPHAPRP | 1.04
RRIRIRPPRLPRPRPRPPSEPRP | -0.118
RRIRPRPPRLPRPRPRPVIPPRP | -0.213
RRIRIRPPRLPRPRPRPCWMPRP | -0.222
RRIRARPPRLPRPRPRPCIHPRP | -0.438
RRIRHRPPRLPRPRPRPKEQPRP | -0.00965
RRIRERPPRLPRPRPRPLDLPRP | -0.357
RRIRTRPPRLPRPRPRPAVSPRP | 0.00645
RRIRERPPRLPRPRPRPKFYPRP | -0.519
RRIRCRPPRLPRPRPRPREYPRP | -0.22

Sequence | shrunken log2 fold change
RRIRVRPPRLPRPRPRPCNTPRP | -0.586
RRIRLRPPRLPRPRPRPPNFPRP | 0.0275
RRIRERPPRLPRPRPRPIHKPRP | -0.424
RRIRIRPPRLPRPRPRPVTVPRP | 0.129
RRIRDRPPRLPRPRPRPYQHPRP | -0.221
RRIRLRPPRLPRPRPRPITGPRP | -0.0243
RRIRARPPRLPRPRPRPTDMPRP | -0.0247
RRIRDRPPRLPRPRPRPDNSPRP | 0.0428
RRIRGRPPRLPRPRPRPLTRPRP | 0.803
RRIRMRPPRLPRPRPRPKYHPRP | -0.488
RRIRARPPRLPRPRPRPGKDPRP | 0.36
RRIRQRPPRLPRPRPRPGLWPRP | 0.452
RRIRFRPPRLPRPRPRPAKQPRP | -0.0234
RRIRTRPPRLPRPRPRPINQPRP | -0.274
RRIRDRPPRLPRPRPRPTKFPRP | 0.138
RRIRSRPPRLPRPRPRPKRSPRP | 0.205
RRIRPRPPRLPRPRPRPFGAPRP | -0.00494
RRIRDRPPRLPRPRPRPPAKPRP | 0.443
RRIRIRPPRLPRPRPRPYDSPRP | -0.423
RRIRGRPPRLPRPRPRPDHDPRP | 0.301
RRIRKRPPRLPRPRPRPFTWPRP | 1.37
RRIRLRPPRLPRPRPRPGHSPRP | -0.0313
RRIRARPPRLPRPRPRPDTSPRP | 0.435
RRIRPRPPRLPRPRPRPGGTPRP | 0.269
RRIRIRPPRLPRPRPRPVMIPRP | -0.00671

Sequence | shrunken log2 fold change
RRIRHRPPRLPRPRPRPSYRPRP | -0.481
RRIRQRPPRLPRPRPRPSVWPRP | 0.128
RRIRMRPPRLPRPRPRPTHFPRP | 0.86
RRIRDRPPRLPRPRPRPNVWPRP | 0.234
RRIRNRPPRLPRPRPRPAKLPRP | -0.153
RRIRTRPPRLPRPRPRPRLRPRP | 0.403
RRIRRRPPRLPRPRPRPWYIPRP | -0.595
RRIRQRPPRLPRPRPRPYIDPRP | -0.606
RRIRFRPPRLPRPRPRPNEDPRP | 0.144
RRIRDRPPRLPRPRPRPLGGPRP | 0.461
RRIRVRPPRLPRPRPRPRAVPRP | 0.314
RRIRWRPPRLPRPRPRPTTFPRP | -0.09
RRIRRRPPRLPRPRPRPYQPPRP | -0.00931
RRIRIRPPRLPRPRPRPYLIPRP | -1.6
RRIRRRPPRLPRPRPRPLIDPRP | 0.192
RRIRTRPPRLPRPRPRPFFVPRP | -0.142
RRIRIRPPRLPRPRPRPWQWPRP | -0.108
RRIRDRPPRLPRPRPRPWFYPRP | -0.0139
RRIRIRPPRLPRPRPRPAVKPRP | -0.0893
RRIRGRPPRLPRPRPRPPVKPRP | 0.678
RRIRVRPPRLPRPRPRPPDDPRP | 0.107
RRIRLRPPRLPRPRPRPGSNPRP | -0.57
RRIRQRPPRLPRPRPRPFPGPRP | 0.115
RRIRQRPPRLPRPRPRPPGAPRP | 0.757
RRIRYRPPRLPRPRPRPGNKPRP | -0.292

Sequence | shrunken log2 fold change
RRIRIRPPRLPRPRPRPTMTPRP | -0.0629
RRIRDRPPRLPRPRPRPGFAPRP | 0.992
RRIRFRPPRLPRPRPRPQCVPRP | -0.276
RRIRKRPPRLPRPRPRPLFVPRP | 0.153
RRIRGRPPRLPRPRPRPRPRPRP | 1.31
RRIRTRPPRLPRPRPRPVILPRP | -0.994
RRIRSRPPRLPRPRPRPRQLPRP | 0.0648
RRIRERPPRLPRPRPRPFQFPRP | -0.062
RRIRGRPPRLPRPRPRPLPIPRP | 0.0433
RRIRERPPRLPRPRPRPRYKPRP | -0.0357
RRIRFRPPRLPRPRPRPANAPRP | -0.0885
RRIRWRPPRLPRPRPRPTTIPRP | 0.127
RRIRHRPPRLPRPRPRPMGVPRP | -0.00663
RRIRMRPPRLPRPRPRPFTIPRP | -0.386
RRIRCRPPRLPRPRPRPATWPRP | -0.104
RRIRVRPPRLPRPRPRPRTAPRP | 0.287
RRIRFRPPRLPRPRPRPETMPRP | 0.0761
RRIRWRPPRLPRPRPRPMHSPRP | -0.0572
RRIRERPPRLPRPRPRPSTLPRP | -0.999
RRIRLRPPRLPRPRPRPWVNPRP | -0.271
RRIRLRPPRLPRPRPRPMHKPRP | -0.449
RRIRMRPPRLPRPRPRPQEHPRP | 0.0123
RRIRQRPPRLPRPRPRPAAFPRP | 0.39
RRIRPRPPRLPRPRPRPHNIPRP | -0.546
RRIRGRPPRLPRPRPRPNIQPRP | 0.398

Sequence | shrunken log2 fold change
RRIRMRPPRLPRPRPRPAGQPRP | -0.00902
RRIRYRPPRLPRPRPRPSNPPRP | -0.512
RRIRERPPRLPRPRPRPMYHPRP | -0.594
RRIRARPPRLPRPRPRPVRCPRP | 0.966
RRIRLRPPRLPRPRPRPIINPRP | -0.448
RRIRDRPPRLPRPRPRPDTPPRP | 0.0945
RRIRARPPRLPRPRPRPVGFPRP | 0.516
RRIRPRPPRLPRPRPRPFYDPRP | -0.138
RRIRIRPPRLPRPRPRPPHTPRP | -0.055
RRIRGRPPRLPRPRPRPWKDPRP | 0.000655
RRIRARPPRLPRPRPRPDAKPRP | 0.338
RRIRLRPPRLPRPRPRPCLKPRP | -0.682
RRIRHRPPRLPRPRPRPLQWPRP | -0.127
RRIRYRPPRLPRPRPRPEIFPRP | -0.159
RRIRTRPPRLPRPRPRPKFWPRP | 0.318
RRIRVRPPRLPRPRPRPLDKPRP | 0.0163
RRIRARPPRLPRPRPRPYRVPRP | -0.211
RRIRWRPPRLPRPRPRPVNPPRP | 0.0699
RRIRWRPPRLPRPRPRPFILPRP | -0.476
RRIRGRPPRLPRPRPRPRYKPRP | 0.247
RRIRCRPPRLPRPRPRPRPAPRP | 0.834
RRIRSRPPRLPRPRPRPNKDPRP | -0.651
RRIRKRPPRLPRPRPRPDWVPRP | 0.0285
RRIRDRPPRLPRPRPRPENIPRP | -0.172
RRIRKRPPRLPRPRPRPSVQPRP | 0.0869
